B1: AFA-Peptide 3 (MP-3) (peptide)
peptide: H-NFVPTNVGPFAF-NH2
notes: Synthetic dodecapeptide NH2-N-F-V-P-T-N-V-G-P-F-A-F-CONH2; also called AFA-CGRP receptor antagonist peptide 3
B2: AFA-Peptide 8 (MP-8) (peptide)
peptide: H-NLVPTNVGPFAF-NH2
notes: Analog of AFA-peptide 3: NH2-N-L-V-P-T-N-V-G-P-F-A-F-CONH2
B3: AFA-Peptide 10 (MP-10) (peptide)
peptide: H-NFAPTNVGPFAF-NH2
notes: Analog of AFA-peptide 3: NH2-N-F-A-P-T-N-V-G-P-F-A-F-CONH2
B4: AFA-Peptide 7 (MP-7) (peptide)
peptide: H-NFLPTNVGPFAF-NH2
notes: Analog of AFA-peptide 3: NH2-N-F-L-P-T-N-V-G-P-F-A-F-CONH2
B5: AFA-Peptide 9 (MP-9) (peptide)
peptide: H-NFFPTNVGPFAF-NH2
notes: Analog of AFA-peptide 3: NH2-N-F-F-P-T-N-V-G-P-F-A-F-CONH2
B6: AFA-Peptide 6 (MP-6) (peptide)
peptide: H-NFIPTNVGPFAF-NH2
notes: Analog of AFA-peptide 3: NH2-N-F-I-P-T-N-V-G-P-F-A-F-CONH2

No end group written: not given here.

T1 sequence (Q16602 23-461, chain 1 of 2): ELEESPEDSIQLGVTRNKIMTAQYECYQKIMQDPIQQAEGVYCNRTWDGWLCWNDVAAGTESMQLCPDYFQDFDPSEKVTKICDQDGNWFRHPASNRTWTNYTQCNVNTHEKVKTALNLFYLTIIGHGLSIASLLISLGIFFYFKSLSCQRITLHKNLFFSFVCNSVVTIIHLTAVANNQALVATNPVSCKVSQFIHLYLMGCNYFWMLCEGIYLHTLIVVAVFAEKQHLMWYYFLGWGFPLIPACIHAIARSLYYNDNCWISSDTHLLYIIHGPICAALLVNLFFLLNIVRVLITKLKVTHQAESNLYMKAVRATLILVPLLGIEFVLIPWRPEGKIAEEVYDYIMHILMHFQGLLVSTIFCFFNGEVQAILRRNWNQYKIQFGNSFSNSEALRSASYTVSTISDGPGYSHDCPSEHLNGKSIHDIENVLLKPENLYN
T1 sequence (O60894 27-148, chain 2 of 2): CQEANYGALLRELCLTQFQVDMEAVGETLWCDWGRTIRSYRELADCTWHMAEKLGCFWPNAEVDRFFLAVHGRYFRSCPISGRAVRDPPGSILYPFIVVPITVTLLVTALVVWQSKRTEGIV

This assay has as its target T1, human calcitonin CGRP1 (CGRP1) membrane (human, UniProt Q16602 23-461; O60894 27-148).
T1 construct: whole, on cells; Purchased membrane preparation (Perkin Elmer), homogenised in assay buffer; the receptor stood in membranes, not intact cells; also called CGRP receptors; CGRP receptor
Kind of assay: displacement of 0.24 nM [125I]-CGRP from human CGRP1 receptor membranes, filtration; Ki by Cheng-Prusoff; mean ± SD. How it is done:
CGRP1 membrane was homogenized in the assay buffer (50 mM Tris-HCl pH 7.4, 5 mM MgCl₂, 0.5% BSA, 0.05% Tween20). […] After 1 h of incubation, at room temperature, samples were filtered, using a Tomtec cell harvester, through glass fiber filters that had been presoaked in 0.05% polyethyleneimine and washed with the cold Tris buffer (50 mM Tris-HCl pH7.4). Filters were counted on a betaplate reader (Wallac).
One may read the Ki as a measure of affinity in units of concentration, obtained from inhibition or displacement. Regarding YVPTAVGPFAF-NH2 (also called conventional CGRP 27-37) [CGRP 27-37], the Ki is 697 nM.

B1: the Ki is 33.3 nM.

For B2, the Ki is 315 nM.

Consider B3, for which the Ki is 33.4 nM.

Regarding B4, the Ki stood at 54.8 nM.

For B5, the Ki came to 49.6 nM.

Regarding B6, the Ki is 63.7 nM.

Values taken from US20160347810A1 (AFASCI, published 2016).
